B1: 370_C07 (antibody, V domains shown)
VH: EVQLLESGGGLVQPGGSLRLSCAASGFTFSSYSMNWVRQAPGKGLEWVANINYNGGYKSYADSVKGRFTISRDNSKNTLYLQMNSLRAEDTAVYYCARGATWHDTHLDYWGQGTLVTVSS
VL: DIQMTQSPSSLSASVGDRVTITCRASQSILSYLNWYQQKPGKAPKLLIYAATSRHSGVPSRFSGSGSGTDFTLTISSLQPEDFATYYCQQSYESPLTFGGGTKVEIK
B2: 370_F12 (antibody, V domains shown)
VH: EVQLLESGGGLVQPGGSLRLSCAASGFTFSDYSMNWVRQAPGKGLEWVANINYNGGYTGYADSVKGRFTISRDNSKNTLYLQMNSLRAEDTAVYYCARGATWHDTHLDYWGQGTLVTVSS
VL: DIQMTQSPSSLSASVGDRVTITCRASQSILSYLNWYQQKPGKAPKLLIYAASSLQSGVPSRFSGSGSGTDFTLTISSLQPEDFATYYCQQSYDSPLTFGGGTKVEIK
B3: 374_C12 (antibody, V domains shown)
VH: EVQLLESGGGLVQPGGSLRLSCAASGFTFSSYSMNWVRQAPGKGLEWVAGINYNGGYKSYADSVKGRFTISRDNSKNTLYLQMNSLRAEDTAVYYCARGANWHDTALDYWGQGTLVTVSS
VL: DIQMTQSPSSLSASVGDRVTITCRASQSILTYLNWYQQKPGKAPKLVIYAATSRASGVPSRFSGSGSGTDFTLTISSLQPEDFATYYCQQSDNSPLTFGGGTKVEIK
B4: 371_F09 (antibody, V domains shown)
VH: EVQLLESGGGLVQPGGSLRLSCAASGFTFSSYSMNWVRQAPGKGLEWVAGINYNGGYTSYADSVKGRFTISRDNSKNTLYLQMNSLRAEDTAVYYCARGATWHDTHLDYWGQGTLVTVSS
VL: DIQMTQSPSSLSASVGDRVTITCRASQSILTYLNWYQQKPGKAPKLLIYAATSRASGVPSRFSGSGSGTDFTLTISSLQPEDFATYYCQQSYDNPLTFGGGTKVEIK
B5: 374_G08 (antibody, V domains shown)
VH: EVQLLESGGGLVQPGGSLRLSCAASGFTFDSYSMNWVRQAPGKGLEWVSGINYNGGYTSYADSVKGRFTISRDNSKNTLYLQMNSLRAEDTAVYYCARGANWHDTALDYWGQGTLVTVSS
VL: DIQMTQSPSSLSASVGDRVTITCRASQSILTYVNWYQQKPGKAPKLVIYAATSRASGVPSRFSGSGSGTDFTLTISSLQPEDFATYYCQQSYDSPLTFGGGTKVEIK
B6: 372_B09 (antibody, V domains shown)
VH: EVQLLESGGGLVQPGGSLRLSCAASGFTFSSYSMNWVRQAPGKGLEWVSSINYNSGYTSYADSVKGRFTISRDNSKNTLYLQMNSLRAEDTAVYYCARGATWHDTHLDYWGQGTLVTVSS
VL: DIQMTQSPSSLSASVGDRVTITCRASQSILTYLNWYQQKPGKAPKLLIYAATSRASGVPSRFSGSGSGTDFTLTISSLQPEDFATYYCQQSYETPLTFGGGTKVEIK
B7: 373_F07 (antibody, V domains shown)
VH: EVQLLESGGGLVQPGGSLRLSCAASGFTFSSYSMNWVRQAPGKGLEWVSGINYNSGYKSYADSVKGRFTISRDNSKNTLYLQMNSLRAEDTAVYYCARGATWHDTHLDYWGQGTLVTVSS
VL: DIQMTQSPSSLSASVGDRVTITCRASQSILSYLNWYQQKPGKAPKLLIYAATSLASGVPSRFSGSGSGTDFTLTISSLQPEDFATYYCQQSYETPLTFGGGTKVEIK
B8: 374_C09 (antibody, V domains shown)
VH: EVQLLESGGGLVQPGGSLRLSCAASGFTFDSYGMNWVRQAPGKGLEWVSSINYNGGYKGYADSVKGRFTISRDNSKNTLYLQMNSLRAEDTAVYYCARGANWHDTHLDYWGQGTLVTVSS
VL: DIQMTQSPSSLSASVGDRVTITCRASQSIVSYLNWYQQKPGKAPKLVIYAATSRASGVPSRFSGSGSGTDFTLTISSLQPEDFATYYCQQSYELPLTFGGGTKVEIK
B9: 374_D10 (antibody, V domains shown)
VH: EVQLLESGGGLVQPGGSLRLSCAASGFTFSSYGMHWVRQAPGKGLEWVASINYNGGYTSYADSVKGRFTISRDNSKNTLYLQMNSLRAEDTAVYYCARGANWHDTHLDYWGQGTLVTVSS
VL: DIQMTQSPSSLSASVGDRVTITCRASQSILTYVNWYQQKPGKAPKLLIYAATSRASGVPSRFSGSGSGTDFTLTISSLQPEDFATYYCQQSYDNPLTFGGGTKVEIK
B10: 374_C01 (antibody, V domains shown)
VH: EVQLLESGGGLVQPGGSLRLSCAASGFTFDSYGMNWVRQAPGKGLEWVSGINYNSGYKSYADSVKGRFTISRDNSKNTLYLQMNSLRAEDTAVYYCARGANWHDTALDYWGQGTLVTVSS
VL: DIQMTQSPSSLSASVGDRVTITCRASQSILTYLNWYQQKPGKAPKLLIYAATSRASGVPSRFSGSGSGTDFTLTISSLQPEDFATYYCQQSYETPLTFGGGTKVEIK
B11: 374_D05 (antibody, V domains shown)
VH: EVQLLESGGGLVQPGGSLRLSCAASGFTFDSYSMNWVRQAPGKGLEWVSGINYNSGYTGYADSVKGRFTISRDNSKNTLYLQMNSLRAEDTAVYYCARGANWHDTHLDYWGQGTLVTVSS
VL: DIQMTQSPSSLSASVGDRVTITCRASQSILTYLNWYQQKPGKAPKLLIYAATSRASGVPSRFSGSGSGTDFTLTISSLQPEDFATYYCQQSYDTPLTFGGGTKVEIK
B12: 373_H03 (antibody, V domains shown)
VH: EVQLLESGGGLVQPGGSLRLSCAASGFTFSSYSMNWVRQAPGKGLEWVSGINYNSGYKSYADSVKGRFTISRDNSKNTLYLQMNSLRAEDTAVYYCARGANWHDTALDYWGQGTLVTVSS
VL: DIQMTQSPSSLSASVGDRVTITCRASQSILSYLNWYQQKPGKAPKLLIYATTSRASGVPSRFSGSGSGTDFTLTISSLQPEDFATYYCQQSYENPLTFGGGTKVEIK
B13: 375_A07 (antibody, V domains shown)
VH: EVQLLESGGGLVQPGGSLRLSCAASGFTFDSYSMNWVRQAPGKGLEWVSSINYNSGYTGYADSVKGRFTISRDNSKNTLYLQMNSLRAEDTAVYYCARGANWHDTHLDYWGQGTLVTVSS
VL: DIQMTQSPSSLSASVGDRVTITCRASQSILTYLNWYQQKPGKAPKLLIYAATSRASGVPSRFSGSGSGTDFTLTISSLQPEDFATYYCQQSYDTPLTFGGGTKVEIK
B14: 370_D03 (antibody, V domains shown)
VH: EVQLLESGGGLVQPGGSLRLSCAASGFTFSSYSMNWVRQAPGKGLEWVASINYNGGYTSYADSVKGRFTISRDNSKNTLYLQMNSLRAEDTAVYYCARGATWHDTHLDYWGQGTLVTVSS
VL: DIQMTQSPSSLSASVGDRVTITCRASQSIITYLNWYQQKPGKAPKLLIYAATSRASGVPSRFSGSGSGTDFTLTISSLQPEDFATYYCQQSYDLPLTFGGGTKVEIK
B15: 373_C07 (antibody, V domains shown)
VH: EVQLLESGGGLVQPGGSLRLSCAASGFTFDSYSMNWVRQAPGKGLEWVAGINYNSGYTSYADSVKGRFTISRDNSKNTLYLQMNSLRAEDTAVYYCARGANWHDTHLDYWGQGTLVTVSS
VL: DIQMTQSPSSLSASVGDRVTITCRASQSILTYLNWYQQKPGKAPKLVIYAATSRASGVPSRFSGSGSGTDFTLTISSLQPEDFATYYCQQSYETPLTFGGGTKVEIK
B16: 370_E04 (antibody, V domains shown)
VH: EVQLLESGGGLVQPGGSLRLSCAASGFTFSSYSMNWVRQAPGKGLEWVANINYNGGYKGYADSVKGRFTISRDNSKNTLYLQMNSLRAEDTAVYYCARGATWHDTHLDYWGQGTLVTVSS
VL: DIQMTQSPSSLSASVGDRVTITCRASQSILTYLNWYQQKPGKAPKLLIYAVTSLHSGVPSRFSGSGSGTDFTLTISSLQPEDFATYYCQQSYETPLTFGGGTKVEIK
B17: 371_B01 (antibody, V domains shown)
VH: EVQLLESGGGLVQPGGSLRLSCAASGFTFDSYSMNWVRQAPGKGLEWVSNINYNSGYTGYADSVKGRFTISRDNSKNTLYLQMNSLRAEDTAVYYCARGATWHDTHLDYWGQGTLVTVSS
VL: DIQMTQSPSSLSASVGDRVTITCRASQSILSYVNWYQQKPGKAPKLLIYAATSLASGVPSRFSGSGSGTDFTLTISSLQPEDFATYYCQQSYDLPLTFGGGTKVEIK
B18: 371_E12 (antibody, V domains shown)
VH: EVQLLESGGGLVQPGGSLRLSCAASGFTFDSYSMNWVRQAPGKGLEWVSGINYNSGYKSYADSVKGRFTISRDNSKNTLYLQMNSLRAEDTAVYYCARGATWHDTHLDYWGQGTLVTVSS
VL: DIQMTQSPSSLSASVGDRVTITCRASQSILSYLNWYQQKPGKAPKLLIYAATSLASGVPSRFSGSGSGTDFTLTISSLQPEDFATYYCQQSYDTPLTFGGGTKVEIK
B19: 375_A12 (antibody, V domains shown)
VH: EVQLLESGGGLVQPGGSLRLSCAASGFTFSSYSMNWVRQAPGKGLEWVSGINYNSGYKSYADSVKGRFTISRDNSKNTLYLQMNSLRAEDTAVYYCARGANWHDTALDYWGQGTLVTVSS
VL: DIQMTQSPSSLSASVGDRVTITCRASQSILSYLNWYQQKPGKAPKLVIYAVTSRASGVPSRFSGSGSGTDFTLTISSLQPEDFATYYCQQSYETPLTFGGGTKVEIK
B20: 373_G08 (antibody, V domains shown)
VH: EVQLLESGGGLVQPGGSLRLSCAASGFTFDSYSMNWVRQAPGKGLEWVSNINYNGGYTSYADSVKGRFTISRDNSKNTLYLQMNSLRAEDTAVYYCARGANWHDTALDYWGQGTLVTVSS
VL: DIQMTQSPSSLSASVGDRVTITCRASQSILTYLNWYQQKPGKAPKLLIYAATSLASGVPSRFSGSGSGTDFTLTISSLQPEDFATYYCQQSYDSPLTFGGGTKVEIK
B21: 374_B03 (antibody, V domains shown)
VH: EVQLLESGGGLVQPGGSLRLSCAASGFTFDSYSMNWVRQAPGKGLEWVSGINYNGGYTSYADSVKGRFTISRDNSKNTLYLQMNSLRAEDTAVYYCARGANWHDTALDYWGQGTLVTVSS
VL: DIQMTQSPSSLSASVGDRVTITCRASQSILTYLNWYQQKPGKAPKLVIYAATSRASGVPSRFSGSGSGTDFTLTISSLQPEDFATYYCQQSYDSPLTFGGGTKVEIK

21 molecules from patent US20210380703A1 (RIGEL PHARMACEUTICALS, published 2021) can be followed below.

The target of this assay is ACVR2A on primary human myotubes (human, UniProt P27037 20-513). In words: cell-based or functional assay.
ACVR2A on primary human myotubes, sequence (P27037 20-513): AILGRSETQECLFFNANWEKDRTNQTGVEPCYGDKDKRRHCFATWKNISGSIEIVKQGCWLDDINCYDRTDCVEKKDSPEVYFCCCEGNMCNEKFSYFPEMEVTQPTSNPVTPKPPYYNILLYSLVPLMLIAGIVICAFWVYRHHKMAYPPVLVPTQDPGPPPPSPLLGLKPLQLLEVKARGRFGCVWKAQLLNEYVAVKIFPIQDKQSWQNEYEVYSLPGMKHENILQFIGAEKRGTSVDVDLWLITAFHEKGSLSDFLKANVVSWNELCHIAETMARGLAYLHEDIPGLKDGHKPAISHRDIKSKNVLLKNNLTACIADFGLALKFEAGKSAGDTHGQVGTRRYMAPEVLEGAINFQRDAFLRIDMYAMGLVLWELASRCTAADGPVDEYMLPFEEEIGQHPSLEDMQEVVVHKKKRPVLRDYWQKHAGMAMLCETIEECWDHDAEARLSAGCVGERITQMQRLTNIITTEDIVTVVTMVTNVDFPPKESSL
B1: the “Phospho-SMAD3 Human Skeletal Muscle GDF8” value stood at 0.0044.

Take B2: the “Phospho-SMAD3 Human Skeletal Muscle GDF8” value worked out at 0.0066.

On to B3, for which the “Phospho-SMAD3 Human Skeletal Muscle GDF8” value was 0.027.

B4: the “Phospho-SMAD3 Human Skeletal Muscle GDF8” value was 0.0311.

As for B5, the “Phospho-SMAD3 Human Skeletal Muscle GDF8” value worked out at 0.034.

Consider B6, for which the “Phospho-SMAD3 Human Skeletal Muscle GDF8” value was determined as 0.0182.

Turning to B7, the “Phospho-SMAD3 Human Skeletal Muscle GDF8” value stood at 0.0069.

With B8, the “Phospho-SMAD3 Human Skeletal Muscle GDF8” value turned out to be 0.189.

Regarding B9, the “Phospho-SMAD3 Human Skeletal Muscle GDF8” value was found to be 0.126.

B10: the “Phospho-SMAD3 Human Skeletal Muscle GDF8” value turned out to be 1.11.

B11: the “Phospho-SMAD3 Human Skeletal Muscle GDF8” value was 0.0177.

On to B12, for which the “Phospho-SMAD3 Human Skeletal Muscle GDF8” value amounted to 0.0129.

With B13, the “Phospho-SMAD3 Human Skeletal Muscle GDF8” value stood at 0.014.

As for B14, the “Phospho-SMAD3 Human Skeletal Muscle GDF8” value was 0.0165.

With B15, the “Phospho-SMAD3 Human Skeletal Muscle GDF8” value stood at 0.0048.

Regarding B16, the “Phospho-SMAD3 Human Skeletal Muscle GDF8” value was 0.0136.

For the molecule B17, the “Phospho-SMAD3 Human Skeletal Muscle GDF8” value came to 0.0076.

B18: the “Phospho-SMAD3 Human Skeletal Muscle GDF8” value amounted to 0.0374.

With B19, the “Phospho-SMAD3 Human Skeletal Muscle GDF8” value is 0.0469.

Turning to B20, the “Phospho-SMAD3 Human Skeletal Muscle GDF8” value stood at 0.0057.

B21: the “Phospho-SMAD3 Human Skeletal Muscle GDF8” value was 0.027.
